According to paper PMC6555819, “Comprehensive study of nuclear receptor DNA binding provides a revised framework for understanding receptor specificity”:
Positions count from the first letter of the chain named.

B1: NRC3_wobSeed97_DR4_A18G_o1 (dsDNA)
DNA 1: GCCAAACTAGGTCACGAGAGGTCAAAGTCGAATGACGCGATTGACAGCGTAGAATGAAGG
DNA 2: CCTTCATTCTACGCTGTCAATCGCGTCATTCGACTTTGACCTCTCGTGACCTAGTTTGGC
B2: NRC3_random_hg19_419_o1 (dsDNA)
DNA 1: GCAGAGCAGACTTCCTGTGTATGTTAGGATGAAACCGCGATTGACAGCGTAGAATGAAGG
DNA 2: CCTTCATTCTACGCTGTCAATCGCGGTTTCATCCTAACATACACAGGAAGTCTGCTCTGC
B3: NRC3_wobSeed85_DR3_G15C_o1 (dsDNA)
DNA 1: GCCGTCCAAGGTCACAGAGGTCAGTGAATGCCGAGTGCGATTGACAGCGTAGAATGAAGG
DNA 2: CCTTCATTCTACGCTGTCAATCGCACTCGGCATTCACTGACCTCTGTGACCTTGGACGGC
B4: NRC3_wobSeed85_DR3_G24T_o1 (dsDNA)
DNA 1: B3 DNA 1 with C15G, G24T
DNA 2: B3 DNA 2 with C37A, G46C
B5: NRC3_wobSeed113_DR4_G15A_o1 (dsDNA)
DNA 1: GCATATGTAGGTTAACTGGGGTCATTCAGACTAGGCGCGATTGACAGCGTAGAATGAAGG
DNA 2: CCTTCATTCTACGCTGTCAATCGCGCCTAGTCTGAATGACCCCAGTTAACCTACATATGC
B6: NRC3_wobSeed87_DR3_T8G_o1 (dsDNA)
DNA 1: GCCGAACGAGGTCATCCAGGACAGTGAATACATTGAGCGATTGACAGCGTAGAATGAAGG
DNA 2: CCTTCATTCTACGCTGTCAATCGCTCAATGTATTCACTGTCCTGGATGACCTCGTTCGGC
B7: NRC3_wobSeed117_DR4_A23T_o1 (dsDNA)
DNA 1: GCCGTCAAAGTTCAACTAAGGTTACGTAAAGCACGCGCGATTGACAGCGTAGAATGAAGG
DNA 2: CCTTCATTCTACGCTGTCAATCGCGCGTGCTTTACGTAACCTTAGTTGAACTTTGACGGC
B8: NRC3_wobSeed142_DR5_G13C_o1 (dsDNA)
DNA 1: GCATACCAAGGTCATCGTGAGGTCGTTGATACTAACGCGATTGACAGCGTAGAATGAAGG
DNA 2: CCTTCATTCTACGCTGTCAATCGCGTTAGTATCAACGACCTCACGATGACCTTGGTATGC
B9: NRC3_wobSeed98_DR4_T9A_o1 (dsDNA)
DNA 1: GCACTAGTAGGTCAGCTGAGGTCACACACAATTCGGGCGATTGACAGCGTAGAATGAAGG
DNA 2: CCTTCATTCTACGCTGTCAATCGCCCGAATTGTGTGTGACCTCAGCTGACCTACTAGTGC
B10: NRC3_wobSeed98_DR4_T9G_o1 (dsDNA)
DNA 1: B9 DNA 1 with A9G
DNA 2: B9 DNA 2 with T52C
B11: NRC3_random_hg19_322_o1 (dsDNA)
DNA 1: GCTGTAAAGTGGTCCACTGACAGCTTCCACTCTTCTGCGATTGACAGCGTAGAATGAAGG
DNA 2: CCTTCATTCTACGCTGTCAATCGCAGAAGAGTGGAAGCTGTCAGTGGACCACTTTACAGC
B12: NRC3_wobSeed114_DR4_C22T_o1 (dsDNA)
DNA 1: GCAATACAGGGTCATCGTAGGTCAGAGTACGCACAGGCGATTGACAGCGTAGAATGAAGG
DNA 2: CCTTCATTCTACGCTGTCAATCGCCTGTGCGTACTCTGACCTACGATGACCCTGTATTGC
B13: NRC3_wobSeed77_DR3_T22C_o1 (dsDNA)
DNA 1: GCACTTACGGGTCAACGAGGTCATAGCACGCGTATAGCGATTGACAGCGTAGAATGAAGG
DNA 2: CCTTCATTCTACGCTGTCAATCGCTATACGCGTGCTATGACCTCGTTGACCCGTAAGTGC
B14: NRC3_wobSeed118_DR4_G13C_o1 (dsDNA)
DNA 1: GCTTACCAAGGTCAGCTGAGGTCGTTGATCCAACTCGCGATTGACAGCGTAGAATGAAGG
DNA 2: CCTTCATTCTACGCTGTCAATCGCGAGTTGGATCAACGACCTCAGCTGACCTTGGTAAGC
B15: NRC3_wobSeed120_DR4_G22T_o1 (dsDNA)
DNA 1: GCCCGAGTAGGTTACGAGGGGTCATTCAGTGCGAATGCGATTGACAGCGTAGAATGAAGG
DNA 2: CCTTCATTCTACGCTGTCAATCGCATTCGCACTGAATGACCCCTCGTAACCTACTCGGGC
B16: NRC3_wobSeed94_DR3_G13C_o1 (dsDNA)
DNA 1: GCCTACCAAGGTCAACAAGGTCGTTGATTACTATTCGCGATTGACAGCGTAGAATGAAGG
DNA 2: CCTTCATTCTACGCTGTCAATCGCGAATAGTAATCAACGACCTTGTTGACCTTGGTAGGC
B17: NRC3_wobSeed119_DR4_G23C_o1 (dsDNA)
DNA 1: GCGGAACGAGGGCATTCGAGTTCATAGCATGGCGATGCGATTGACAGCGTAGAATGAAGG
DNA 2: CCTTCATTCTACGCTGTCAATCGCATCGCCATGCTATGAACTCGAATGCCCTCGTTCCGC
B18: NRC3_random_hg19_103_o1 (dsDNA)
DNA 1: GCTCAGGAGTTCGAGAACAGCCTGGCTAACATGGCGGCGATTGACAGCGTAGAATGAAGG
DNA 2: CCTTCATTCTACGCTGTCAATCGCCGCCATGTTAGCCAGGCTGTTCTCGAACTCCTGAGC

Experiments:
[1] = target: THRa:RXRa (Homo sapiens, UniProt P10827;P19793 full;full); test: no ligand; PBM; 90 nM : 90 nM RXRa; PBS pH 7.4, 2% milk, 0.02% Triton X-100, 1 mM DTT, BSA, 0.4 mg/ml salmon testes DNA; conditions: tags: His kept;His cleaved; copies: 1;1; label: surface-attached array probe
[2] = target: VDR:RXRa (Homo sapiens, UniProt P11473;P19793 full;full); test: no ligand; PBM; 270 nM : 90 nM RXRa; PBS pH 7.4, 2% milk, 0.02% Triton X-100, 1 mM DTT, BSA, 0.4 mg/ml salmon testes DNA; conditions: tags: His kept;His cleaved; copies: 1;1; label: surface-attached array probe
Procedure, shortened: (§1)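 The probes on custom Agilent 4×180K protein-binding microarrays were double-stranded, with 34-nt variable regions bearing direct-repeat seeds, single-nucleotide variants, half-site ablations and random human genomic background sequences. Incubation lasted 1 h with ligand-free nuclear receptor dimers in PBS pH 7.4, 2% milk, 0.02% Triton X-100, 1 mM DTT, 0.2 mg/mL BSA and 0.4 mg/ml salmon testes DNA. Antibodies against each partner (one per run) detected bound dimers, and fluorescence scans were regression-normalized. Binding z-scores take the random background probes as reference.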

[3] = target: FXR:RXRa (Homo sapiens, UniProt Q96RI1;P19793 full;full); test: as above; conditions: tags: His kept;His cleaved; copies: 1;1; label: surface-attached array probe
Procedure, shortened: as §1

[4] = target: PXR:RXRa (Homo sapiens, UniProt O75469;P19793 full;full); test: as above; conditions: tags: His kept;His cleaved; copies: 1;1; label: surface-attached array probe
Procedure, shortened: as §1

[5] = target: LXRa:RXRa (Homo sapiens, UniProt Q13133;P19793 full;full); test: as above; conditions: tags: His kept;His cleaved; copies: 1;1; label: surface-attached array probe
Procedure, shortened: as §1

[6] = target: RARb:RXRa (Homo sapiens, UniProt P10826;P19793 full;full); test: as above; conditions: tags: His kept;His cleaved; copies: 1;1; label: surface-attached array probe
Procedure, shortened: as §1

[7] = target: PPARa:RXRa (Homo sapiens, UniProt Q07869;P19793 full;full); test: as above; conditions: tags: GST kept;His cleaved; copies: 1;1; label: surface-attached array probe
Procedure, shortened: as §1

[8] = target: LXRb:RXRa (Homo sapiens, UniProt P55055;P19793 full;full); test: as above; conditions: tags: His kept;His cleaved; copies: 1;1; label: surface-attached array probe
Procedure, shortened: as §1

[9] = target: RARg:RXRa (Homo sapiens, UniProt P13631;P19793 full;full); test: as above; conditions: tags: His kept;His cleaved; copies: 1;1; label: surface-attached array probe
Procedure, shortened: as §1

[10] = target: RXRa (Homo sapiens, UniProt P19793); test: no ligand; PBM; 180 nM; PBS pH 7.4, 2% milk, 0.02% Triton X-100, 1 mM DTT, BSA, 0.4 mg/ml salmon testes DNA; conditions: tags: His cleaved; chain copies: 2; label: surface-attached array probe

LXRb:RXRa, sequence (P55055 whole entry, chain 1 of 2): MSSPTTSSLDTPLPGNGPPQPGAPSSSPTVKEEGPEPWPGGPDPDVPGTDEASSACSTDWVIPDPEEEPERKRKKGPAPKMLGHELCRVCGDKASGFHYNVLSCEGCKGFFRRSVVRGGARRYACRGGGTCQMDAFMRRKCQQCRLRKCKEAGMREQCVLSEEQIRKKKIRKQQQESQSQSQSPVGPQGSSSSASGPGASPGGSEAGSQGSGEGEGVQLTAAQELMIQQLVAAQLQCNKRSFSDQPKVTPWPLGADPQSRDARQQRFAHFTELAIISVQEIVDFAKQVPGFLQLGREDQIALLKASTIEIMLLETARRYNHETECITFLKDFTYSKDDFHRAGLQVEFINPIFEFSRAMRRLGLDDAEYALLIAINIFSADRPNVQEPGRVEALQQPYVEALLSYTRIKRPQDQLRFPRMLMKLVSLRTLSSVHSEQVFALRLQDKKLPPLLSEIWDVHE
LXRb:RXRa, sequence (P19793 whole entry, chain 2 of 2): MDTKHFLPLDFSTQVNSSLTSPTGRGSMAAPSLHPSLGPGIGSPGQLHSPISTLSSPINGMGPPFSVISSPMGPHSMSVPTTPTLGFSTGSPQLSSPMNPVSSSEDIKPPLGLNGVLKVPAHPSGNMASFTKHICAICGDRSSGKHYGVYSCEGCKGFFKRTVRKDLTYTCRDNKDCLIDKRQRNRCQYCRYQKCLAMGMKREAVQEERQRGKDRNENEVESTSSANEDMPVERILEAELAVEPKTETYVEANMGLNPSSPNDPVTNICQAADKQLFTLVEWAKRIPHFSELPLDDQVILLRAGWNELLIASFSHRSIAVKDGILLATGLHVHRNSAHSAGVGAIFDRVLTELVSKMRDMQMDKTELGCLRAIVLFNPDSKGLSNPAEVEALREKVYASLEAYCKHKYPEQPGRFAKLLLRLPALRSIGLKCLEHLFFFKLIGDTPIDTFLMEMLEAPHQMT
PXR:RXRa, sequence (O75469 whole entry, chain 1 of 2): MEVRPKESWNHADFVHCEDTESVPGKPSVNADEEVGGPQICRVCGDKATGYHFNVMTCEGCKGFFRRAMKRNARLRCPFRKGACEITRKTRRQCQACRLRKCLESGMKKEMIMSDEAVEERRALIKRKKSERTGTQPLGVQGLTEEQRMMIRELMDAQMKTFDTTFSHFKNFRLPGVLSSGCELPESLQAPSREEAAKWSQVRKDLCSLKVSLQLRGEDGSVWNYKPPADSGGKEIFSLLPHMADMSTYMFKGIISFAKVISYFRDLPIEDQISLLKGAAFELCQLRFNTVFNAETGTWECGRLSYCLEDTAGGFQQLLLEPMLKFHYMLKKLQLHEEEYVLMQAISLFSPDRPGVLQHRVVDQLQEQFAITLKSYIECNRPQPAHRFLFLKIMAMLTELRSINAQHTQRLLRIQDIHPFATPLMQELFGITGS
PXR:RXRa, sequence (P19793 whole entry, chain 2 of 2): as the sequence (P19793 whole entry, chain 2 of 2) above
FXR:RXRa, sequence (Q96RI1 whole entry, chain 1 of 2): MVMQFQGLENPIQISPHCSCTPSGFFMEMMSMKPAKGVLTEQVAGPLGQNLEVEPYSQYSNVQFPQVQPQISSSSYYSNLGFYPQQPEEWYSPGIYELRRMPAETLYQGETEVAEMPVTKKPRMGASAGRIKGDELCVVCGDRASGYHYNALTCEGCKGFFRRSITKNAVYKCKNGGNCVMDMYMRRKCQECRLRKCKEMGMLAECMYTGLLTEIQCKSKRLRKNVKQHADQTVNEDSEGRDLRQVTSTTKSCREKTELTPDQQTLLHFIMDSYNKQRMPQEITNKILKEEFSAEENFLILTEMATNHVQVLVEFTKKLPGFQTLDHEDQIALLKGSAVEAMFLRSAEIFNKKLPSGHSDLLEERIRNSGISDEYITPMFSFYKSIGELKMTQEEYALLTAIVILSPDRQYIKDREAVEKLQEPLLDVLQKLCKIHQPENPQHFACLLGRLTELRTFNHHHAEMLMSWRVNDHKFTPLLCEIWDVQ
FXR:RXRa, sequence (P19793 whole entry, chain 2 of 2): as the sequence (P19793 whole entry, chain 2 of 2) above
VDR:RXRa, sequence (P11473 whole entry, chain 1 of 2): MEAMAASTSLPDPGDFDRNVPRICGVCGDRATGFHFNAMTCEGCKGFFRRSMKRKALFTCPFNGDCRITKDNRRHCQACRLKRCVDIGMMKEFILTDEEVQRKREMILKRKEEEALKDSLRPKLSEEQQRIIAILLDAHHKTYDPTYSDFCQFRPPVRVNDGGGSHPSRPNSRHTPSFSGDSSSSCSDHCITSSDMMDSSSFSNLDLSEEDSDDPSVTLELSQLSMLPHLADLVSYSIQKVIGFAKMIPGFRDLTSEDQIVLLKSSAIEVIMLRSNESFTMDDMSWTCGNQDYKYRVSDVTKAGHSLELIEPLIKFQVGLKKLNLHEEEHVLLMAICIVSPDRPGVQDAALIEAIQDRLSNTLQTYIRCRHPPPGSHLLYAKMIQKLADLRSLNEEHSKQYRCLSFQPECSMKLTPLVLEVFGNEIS
VDR:RXRa, sequence (P19793 whole entry, chain 2 of 2): as the sequence (P19793 whole entry, chain 2 of 2) above
THRa:RXRa, sequence (P10827 other isoform, or with tags, fused parts or gaps, chain 1 of 2): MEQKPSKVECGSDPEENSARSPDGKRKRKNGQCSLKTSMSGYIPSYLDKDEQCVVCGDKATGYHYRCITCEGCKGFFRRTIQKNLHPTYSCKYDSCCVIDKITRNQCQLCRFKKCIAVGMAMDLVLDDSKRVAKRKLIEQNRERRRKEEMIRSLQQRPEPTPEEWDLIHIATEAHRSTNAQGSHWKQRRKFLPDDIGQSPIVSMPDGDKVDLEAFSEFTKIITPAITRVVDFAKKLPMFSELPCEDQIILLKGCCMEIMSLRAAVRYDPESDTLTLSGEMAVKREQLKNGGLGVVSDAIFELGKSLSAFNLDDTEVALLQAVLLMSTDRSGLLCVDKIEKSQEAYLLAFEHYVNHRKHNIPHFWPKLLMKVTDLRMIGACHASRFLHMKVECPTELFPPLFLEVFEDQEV
THRa:RXRa, sequence (P19793 whole entry, chain 2 of 2): as the sequence (P19793 whole entry, chain 2 of 2) above

Row | Binder | binding signal [1] | binding signal [2] | binding signal [3] | binding signal [4] | binding signal [5] | binding signal [6] | binding signal [7] | binding signal [8] | binding signal [9] | binding signal [10]
1 | B1 | 5.49 PBM z-score against 500 random probes | 7.3 PBM z-score against 500 random probes | 7.96 PBM z-score against 500 random probes | 7.59 PBM z-score against 500 random probes |  |  |  |  |  | 
2 | B2 | -0.56 PBM z-score against 500 random probes |  | -0.65 PBM z-score against 500 random probes | -0.62 PBM z-score against 500 random probes | -0.87 PBM z-score against 500 random probes |  |  |  |  | 
3 | B3 | 4.91 PBM z-score against 500 random probes |  | 7.83 PBM z-score against 500 random probes | 6.95 PBM z-score against 500 random probes |  | 5.99 PBM z-score against 500 random probes | 6.53 PBM z-score against 500 random probes | 5.81 PBM z-score against 500 random probes | 7.46 PBM z-score against 500 random probes | 
4 | B4 | 4.8 PBM z-score against 500 random probes | 8.16 PBM z-score against 500 random probes |  | 7.16 PBM z-score against 500 random probes |  | 5.65 PBM z-score against 500 random probes |  |  |  | 
5 | B5 | 5.49 PBM z-score against 500 random probes | 7.19 PBM z-score against 500 random probes |  | 6.99 PBM z-score against 500 random probes | 7.87 PBM z-score against 500 random probes |  |  | 6.88 PBM z-score against 500 random probes |  | 
6 | B6 | 4.78 PBM z-score against 500 random probes | 6.85 PBM z-score against 500 random probes | 8.44 PBM z-score against 500 random probes | 6.36 PBM z-score against 500 random probes |  |  |  |  |  | 
7 | B7 | 5.54 PBM z-score against 500 random probes |  |  | 6.82 PBM z-score against 500 random probes | 7.31 PBM z-score against 500 random probes |  |  |  |  | 
8 | B8 | 5.13 PBM z-score against 500 random probes | 7.1 PBM z-score against 500 random probes |  | 6.51 PBM z-score against 500 random probes |  |  |  |  | 7.52 PBM z-score against 500 random probes | 
9 | B9 | 5.78 PBM z-score against 500 random probes | 6.98 PBM z-score against 500 random probes |  | 7.12 PBM z-score against 500 random probes |  |  |  |  |  | 
10 | B10 | 5.78 PBM z-score against 500 random probes | 6.63 PBM z-score against 500 random probes |  | 6.95 PBM z-score against 500 random probes |  |  |  |  |  | 
11 | B11 | -0.7 PBM z-score against 500 random probes | -0.74 PBM z-score against 500 random probes |  | -0.56 PBM z-score against 500 random probes |  |  |  | -0.71 PBM z-score against 500 random probes |  | 
12 | B12 | 5.25 PBM z-score against 500 random probes |  |  | 6.36 PBM z-score against 500 random probes | 7.62 PBM z-score against 500 random probes |  |  | 6.24 PBM z-score against 500 random probes |  | 
13 | B13 | 4.97 PBM z-score against 500 random probes | 8.66 PBM z-score against 500 random probes |  | 6.59 PBM z-score against 500 random probes |  |  |  | 6.07 PBM z-score against 500 random probes |  | 7.88 PBM z-score against 500 random probes
14 | B14 | 5.55 PBM z-score against 500 random probes | 6.65 PBM z-score against 500 random probes |  | 6.89 PBM z-score against 500 random probes |  |  |  |  |  | 
15 | B15 | 4.77 PBM z-score against 500 random probes | 6.94 PBM z-score against 500 random probes |  | 6.59 PBM z-score against 500 random probes | 8.11 PBM z-score against 500 random probes |  |  | 7.35 PBM z-score against 500 random probes |  | 
16 | B16 | 4.82 PBM z-score against 500 random probes | 8.68 PBM z-score against 500 random probes | 8.19 PBM z-score against 500 random probes | 6.83 PBM z-score against 500 random probes | 6.7 PBM z-score against 500 random probes | 5.51 PBM z-score against 500 random probes |  | 5.94 PBM z-score against 500 random probes |  | 
17 | B17 | 4.79 PBM z-score against 500 random probes | 7.03 PBM z-score against 500 random probes |  | 7.11 PBM z-score against 500 random probes | 6.87 PBM z-score against 500 random probes |  |  |  |  | 
18 | B18 | -0.5 PBM z-score against 500 random probes |  |  | 0.28 PBM z-score against 500 random probes | 0.13 PBM z-score against 500 random probes |  |  |  |  | 
